Assay results: US9908923 (MEDICAL COLLEGE OF WISCONSIN, dated 2018)
Non-standard residues stand in square brackets, D forms with d. sY = N[C@@H](Cc1ccc(OS(=O)(=O)O)cc1)C(=O)O

B1: FLAG-hCXCR4 Ile4Ala/Ile6Ala (receptor, human, UniProt P61073 1-352, looked up)
chain: MEGASAYTSDNYTEEMGSGDYDSMKEPCFREENANFNKIFLPTIYSIIFLTGIVGNGLVILVMGYQKKLRSMTDKYRLHLSVADLLFVITLPFWAVDAVANWYFGNFLCKAVHVIYTVNLYSSVLILAFISLDRYLAIVHATNSQRPRKLLAEKVVYVGVWIPALLLTIPDFIFANVSEADDRYICDRFYPNDLWVVVFQFQHIMVGLILPGIVILSCYCIIISKLSHSKGHQKRKALKTTVILILAFFACWLPYYIGISIDSFILLEIIKQGCEFENTVHKWISITEALAFFHCCLNPILYAFLGAKFKTSAQHALTSVSRGSSLKILSKGKRGGHSSVSTESESSSFHSS
notes: whole, on cells; also called CXCR4 (I4A/I6A); not shown: FLAG tag
B2: 18SGDsYDSM24 (sTyr21 sulfopeptide) (peptide)
peptide: Ac-SGD[sY]DSM-NH2
SMILES: CSCC[C@H](NC(=O)[C@H](CO)NC(=O)[C@H](CC(=O)O)NC(=O)[C@H](Cc1ccc(OS(=O)(=O)O)cc1)NC(=O)[C@H](CC(=O)O)NC(=O)CNC(=O)[C@H](CO)NC(C)=O)C(N)=O
notes: Synthetic CXCR4 heptapeptide, residues 18-24; also called sulfated Tyr21 peptide
B3: 18SGDYDSM24 (Tyr21 peptide) (peptide)
peptide: Ac-SGDYDSM-NH2
notes: Synthetic CXCR4 heptapeptide, residues 18-24; also called unsulfated Tyr21 peptide
B4: CXCR41-38 (first 38 amino acids of CXCR4 preceded by a GlyMet dipeptide tag) (peptide)
peptide: GMMEGISIYTSDNYTEEMGSGDYDSMKEPAFREENANFNK
notes: range 1-38; Unsulfated recombinant peptide; also called CXCR4 N-terminal domain; CXCR1-38
B5: 4ISIsYTSD10 (sTyr7 sulfopeptide) (peptide)
peptide: Ac-ISI[sY]TSD-NH2
SMILES: CC[C@H](C)[C@H](NC(C)=O)C(=O)N[C@@H](CO)C(=O)N[C@H](C(=O)N[C@@H](Cc1ccc(OS(=O)(=O)O)cc1)C(=O)N[C@H](C(=O)N[C@@H](CO)C(=O)N[C@@H](CC(=O)O)C(N)=O)[C@@H](C)O)[C@@H](C)CC
notes: Synthetic CXCR4 heptapeptide, residues 4-10
B6: 9SDNsYTEE15 (sTyr12 sulfopeptide) (peptide)
peptide: Ac-SDN[sY]TEE-NH2
SMILES: CC(=O)N[C@@H](CO)C(=O)N[C@@H](CC(=O)O)C(=O)N[C@@H](CC(N)=O)C(=O)N[C@@H](Cc1ccc(OS(=O)(=O)O)cc1)C(=O)N[C@H](C(=O)N[C@@H](CCC(=O)O)C(=O)N[C@@H](CCC(=O)O)C(N)=O)[C@@H](C)O
notes: Synthetic CXCR4 heptapeptide, residues 9-15
B7: 4ISIYTSD10 (unsulfated Tyr7 peptide) (peptide)
peptide: Ac-ISIYTSD-NH2
notes: Synthetic CXCR4 heptapeptide, residues 4-10; also called CXCR4 Ile4-Asp10 heptapeptide
B8: 9SDNYTEE15 (Tyr12 peptide) (peptide)
peptide: Ac-SDNYTEE-NH2
notes: Synthetic CXCR4 heptapeptide, residues 9-15; also called unsulfated Tyr12 peptide

How the values were obtained:
[1] = molecular target: T1, CXCL12WT (wild type CXCL12) (Homo sapiens (Human), UniProt P48061 22-89); assay: 125I-CXCL12 radioligand displacement on CXCR4 II/AA (I4A/I6A); displaced tracer 125I-CXCL12
T1 construct: Recombinant, expressed and purified as previously described; [U-15N]-labelled in the NMR titrations; In monomer-dimer equilibrium; also called stromal cell-derived factor-1; SDF-1

[2] = molecular target: T2, CXCL122 (constitutively dimeric CXCL12 variant, L36C/A65C) (Homo sapiens (Human), UniProt P48061 22-89, disulfide-locked dimer through the engineered cysteines); assay: NMR titrations
T2 construct: it is described as a variant of CXCL12 containing L36C/A65C mutations; also called CXCL12 locked dimer; LD
Protocol: (§1) Each peptide was acetylated and amidated to create uncharged N- and C-termini, respectively. […] For each titration, the chemical shift change of every residue was used to identify the binding site and calculate the interaction affinity.
(§2) Total peptide additions differed for individual peptide titrations but ranged from 0-160 equivalencies. Spectra were processed using in-house scripts and chemical shift tracking was performed using CARA software. Combined ^1H/^15N chemical shift perturbations were calculated as $((5\ \Delta\delta_H)^2+(\Delta\deltaNH)^2)^{0.5}$, where δ_H and $\deltaNH$ are the amide proton and nitrogen chemical shifts, respectively. Equilibrium dissociation constants (K_d) were determined by non-linear fitting of the combined ^1H/^15N_H chemical shift perturbations as a function of peptide concentration to a single-site quadratic equation. For a given interaction, residues with the largest chemical shift perturbations were fitted individually. The resulting K_d values and their respective fitting errors were then averaged to produce the reported affinity and standard deviation for that interaction.

[3] = molecular target: T1, CXCL12WT (wild type CXCL12); assay: ΔG = -RT ln Kd at 298 K from the NMR titration
Protocol: as §1, §2

[4] = molecular target: T3, CXCL121 (constitutively monomeric CXCL12 variant, L55C/I58C) (Felis catus (Cat) (Felis silvestris …, UniProt O62657 22-89, engineered disulfide between Cys55 and Cys58)); assay: ΔG = -RT ln Kd at 298 K from the NMR titration
T3 construct: also called CXCL12 locked monomer; LM
Protocol: as §1, §2

[5] = molecular target: T2, CXCL122 (constitutively dimeric CXCL12 …); assay: ΔG = -RT ln Kd at 298 K from the NMR titration
Protocol: as §1, §2

[6] = molecular target: T1, CXCL12WT (wild type CXCL12); assay: NMR 1H-15N HSQC titration of peptide into 15N-labelled chemokine, chemical shift perturbations fitted to a quadratic binding equation, 298 K
Protocol: as §1, §2

[7] = molecular target: T3, CXCL121 (constitutively monomeric …); assay: as above
Protocol: as §1, §2

[8] = molecular target: T2, CXCL122 (constitutively dimeric CXCL12 …); assay: as above
Protocol: as §1, §2

[9] = molecular target: T2, CXCL122 (constitutively dimeric CXCL12 …); assay: ΔG = -RT ln Kd at 298 K from the NMR titration; non-specific binding to sY21 position
Protocol: as §1, §2

[10] = molecular target: T1, CXCL12WT (wild type CXCL12); assay: NMR titrations
Protocol: as §1, §2

[11] = molecular target: T3, CXCL121 (constitutively monomeric …); assay: NMR titrations (Table 1)
Protocol: as §1, §2

T2 sequence (P48061 22-89 L57C/A86C limits assumed): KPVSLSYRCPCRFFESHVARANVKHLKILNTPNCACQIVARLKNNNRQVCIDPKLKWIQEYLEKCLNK
T1 sequence (P48061 22-89 limits assumed): as the sequence (P48061 22-89 L57C/A86C limits assumed) above, with C36L, C65A counted along it
T3 sequence (O62657 22-89 L76C/I79C limits assumed): as the sequence (P48061 22-89 L57C/A86C limits assumed) above, with C36L, L55C, I58C, C65A counted along it

Row | Binder | binding result [1] | fold stronger binding than the unsulfated variant [2] | fold stronger binding than to CXCL12WT or CXCL121 [2] | ΔG [3] | ΔG [4] | ΔG [5] | Kd [6] | Kd [7] | Kd [8] | ΔG [9] | fold higher affinity than the sTyr7 sulfopeptide [10] | fold stronger binding than the sTyr7 sulfopeptide [11]
1 | B1 | binds |  |  |  |  |  |  |  |  |  |  | 
2 | B2 |  | 4 fold | 20 fold | -3.74 kcal/mol | -3.81 kcal/mol | -5.01 kcal/mol | 1800 µM | 1600 µM | 211 µM |  |  | 
3 | B3 |  |  |  | -3.5 kcal/mol | -3.85 kcal/mol | -4.2 kcal/mol | 2700 µM | 1500 µM | 831 µM |  |  | 
4 | B4 |  |  |  |  | -7.43 kcal/mol | -8.24 kcal/mol |  | 3.5 µM | 0.9 µM |  |  | 
5 | B5 |  |  |  | -3.22 kcal/mol | -3.02 kcal/mol |  | 4300 µM | 6100 µM |  | -4.65 kcal/mol |  | 
6 | B6 |  |  |  | -4.09 kcal/mol | -3.74 kcal/mol |  |  | 1800 µM |  | -4.87 kcal/mol |  | 
7 | B7 |  |  |  | -3.71 kcal/mol | -4.03 kcal/mol |  | 1900 µM | 1100 µM |  | -4.6 kcal/mol | 2 fold | ~5 fold
8 | B8 |  |  |  | -3.65 kcal/mol | -3.5 kcal/mol | -4.74 kcal/mol |  | 2700 µM |  |  |  | 
